From US20260116991A1 (HAINAN SIMCERE ZAIMING PHARMACEUTICAL, published 2026) come the findings set out here.

Numbering of substitutions follows the chain as printed.

The labels stand for the following.
B1: GC33 IgG (antibody, V domains shown)
VH: QVQLVQSGAEVKKPGASVKVSCKASGYTFTDYEMHWVRQAPGQGLEWMGALDPKTGDTAYSQKFKGRVTLTADKSTSTAYMELSSLTSEDTAVYYCTRFYSYTYWGQGTLVTVSS
VL: DVVMTQSPLSLPVTPGEPASISCRSSQSLVHSNRNTYLHWYLQKPGQSPQLLIYKVSNRFSGVPDRFSGSGSGTDFTLKISRVEAEDVGVYYCSQNTHVPPTFGQGTKLEIKR
notes: Control antibody expressed as complete IgG; also called codrituzumab
B2: hAb005LH2L1a (antibody, human IgG1, V domains shown)
VH: EVQLVQSGAEVKKPGASVKVSCKASGYTFTDYEMHWVRQAPGQGLEWMGAIDPETGNTAYIQKFKGRVTLTTDKSTSTAYMELRSLRSDDTAVYYCTRFYSYSHWGQGTTVTVSS
VL: DIVMTQTPLSLPVTPGEPASISCRSSQSLVHSDGNTYLHWYLQKPGQSPQLLIYKVSNRFSGVPDRFSGSGSGTDFTLKISRVEAEDVGVYYCSQNTHVPPTFGGGTKVEIK
notes: Humanized F3.54.12; VH H2 + VL L1a; expressed as human IgG1
B3: hAb005LH3L1b (antibody, human IgG1, V domains shown)
VH: B2 VH with M48I, V68A
VL: B2 VL with D33N, G34R
notes: Humanized F3.54.12; VH H3 + VL L1b; expressed as human IgG1
B4: hAb005LH2L1b (antibody, human IgG1, V domains shown)
VH: B2 VH
VL: B2 VL with D33N, G34R
notes: Humanized F3.54.12; VH H2 + VL L1b; expressed as human IgG1
B5: hAb005LH3L1 (antibody, human IgG1, V domains shown)
VH: B2 VH with M48I, V68A
VL: B2 VL with D33N
notes: Humanized F3.54.12; VH H3 + VL L1; expressed as human IgG1
B6: hAb005LH3L1a (antibody, human IgG1, V domains shown)
VH: B2 VH with M48I, V68A
VL: B2 VL
notes: Humanized F3.54.12; VH H3 + VL L1a; expressed as human IgG1

For one assay, the target named is biotinylated labeled human GPC3 protein (produced in-house) (human, UniProt P51654 25-559, limits assumed, biotinylated (Dojindo, Cat. No. LK03); sites not stated). As to the kind of experiment: ELISA, biotinylated human GPC3 protein.
Consider B1, for which the “OD450 at 0.0004 nM” value was found to be 0.054 OD450, the “OD450 at 0.002 nM” value was 0.067 OD450, the “OD450 at 0.011 nM” value worked out at 0.127 OD450 and the “OD450 at 0.056 nM” value was 0.442 OD450. The “OD450 at 0.28 nM” value worked out at 0.993 OD450, the “OD450 at 1.39 nM” value came to 1.5 OD450, the “OD450 at 6.94 nM” value is 1.36 OD450 and the “OD450 at 34.72 nM” value was found to be 1.3 OD450.
As to B2, the “OD450 at 0.0008 nM” value was 0.049 OD450, the “OD450 at 0.004 nM” value was 0.049 OD450, the “OD450 at 0.02 nM” value was 0.053 OD450 and the “OD450 at 0.11 nM” value is 0.048 OD450. The “OD450 at 0.53 nM” value came to 0.066 OD450, the “OD450 at 2.67 nM” value worked out at 0.148 OD450, the “OD450 at 13.33 nM” value stood at 0.249 OD450 and the “OD450 at 66.66 nM” value turned out to be 0.589 OD450.
Consider B3, for which the “OD450 at 0.0008 nM” value worked out at 0.074 OD450, the “OD450 at 0.004 nM” value came to 0.169 OD450, the “OD450 at 0.02 nM” value was 0.426 OD450 and the “OD450 at 0.11 nM” value is 0.838 OD450. The “OD450 at 0.53 nM” value was determined as 0.952 OD450, the “OD450 at 2.67 nM” value came out at 1.1 OD450, the “OD450 at 13.33 nM” value was determined as 1.03 OD450 and the “OD450 at 66.66 nM” value is 1.04 OD450.
With B4, the “OD450 at 0.0008 nM” value came to 0.074 OD450, the “OD450 at 0.004 nM” value worked out at 0.194 OD450, the “OD450 at 0.02 nM” value was determined as 0.43 OD450 and the “OD450 at 0.11 nM” value came out at 0.856 OD450. Also, the “OD450 at 0.53 nM” value was determined as 1.05 OD450, the “OD450 at 2.67 nM” value was found to be 1.04 OD450, the “OD450 at 13.33 nM” value came to 1.07 OD450 and the “OD450 at 66.66 nM” value was 1.16 OD450.
Take B5: the “OD450 at 0.0008 nM” value amounted to 0.079 OD450, the “OD450 at 0.004 nM” value was 0.162 OD450, the “OD450 at 0.02 nM” value came out at 0.441 OD450 and the “OD450 at 0.11 nM” value amounted to 0.715 OD450. In addition, the “OD450 at 0.53 nM” value came to 0.923 OD450, the “OD450 at 2.67 nM” value amounted to 1.1 OD450, the “OD450 at 13.33 nM” value turned out to be 1.07 OD450 and the “OD450 at 66.66 nM” value came to 1.12 OD450.
On to B6, for which the “OD450 at 0.0008 nM” value was determined as 0.047 OD450, the “OD450 at 0.004 nM” value came out at 0.049 OD450, the “OD450 at 0.02 nM” value was 0.049 OD450 and the “OD450 at 0.11 nM” value is 0.05 OD450. The “OD450 at 0.53 nM” value turned out to be 0.058 OD450, the “OD450 at 2.67 nM” value came to 0.101 OD450, the “OD450 at 13.33 nM” value is 0.153 OD450 and the “OD450 at 66.66 nM” value was found to be 0.402 OD450.

The target of a further assay is T1, human GPC3 on CHO-K1-human GPC3 cells (CHOK1-hGPC3.2B5) (human, UniProt P51654 25-554).
T1 construct: whole, on cells
Nature of the assay: FACS, CHOK1-hGPC3.2B5 cells.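 Note: flow cytometry of humanized antibodies binding to the cells over one hour in the cold, read as cell mean fluorescence intensity, with EC50 obtained by curve fitting.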
For B1, the half-maximal effective concentration (EC50) stood at 2.19 nM and the “Max MFI” value is 17000 MFI.
For the molecule B2, the half-maximal effective concentration (EC50) was found to be 118 nM and the “Max MFI” value is 153 MFI.
Taken in the same sequence, the figures for B3 were 0.558 nM and 4740 MFI.
For B4, in that order: 0.54 nM and 4770 MFI.
For B5, the half-maximal effective concentration (EC50) is 0.734 nM and the “Max MFI” value is 4700 MFI.
For B6, in that order: 133 nM and 136 MFI.
